Earlier results as cited in paper PMC4489423.
Like-named read-outs stand apart in the source and are kept apart here.

Columns and labels:
[1] = biological target: IL-10R2 ECD (Homo sapiens) (UniProt Q08334)
[2] = biological target: IL-10R1 ECD (Homo sapiens) (UniProt Q13651); test: SPR
[3] = biological target: IL-10R2 ECD (Homo sapiens) (UniProt Q08334); test: SPR

IL-10, sequence (P22301 19-178): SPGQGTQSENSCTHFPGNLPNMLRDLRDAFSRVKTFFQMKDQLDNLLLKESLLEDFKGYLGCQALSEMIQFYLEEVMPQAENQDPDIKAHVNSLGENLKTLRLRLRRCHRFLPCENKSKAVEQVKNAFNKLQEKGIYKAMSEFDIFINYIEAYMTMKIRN
IL-10R2 ECD (Homo sapiens), sequence (Q08334 20-220): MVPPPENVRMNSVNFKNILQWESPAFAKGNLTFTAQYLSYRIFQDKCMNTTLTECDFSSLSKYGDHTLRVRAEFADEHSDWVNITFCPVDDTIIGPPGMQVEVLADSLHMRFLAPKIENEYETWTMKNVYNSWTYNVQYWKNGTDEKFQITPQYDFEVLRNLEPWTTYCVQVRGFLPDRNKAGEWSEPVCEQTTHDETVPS
IL-10/IL-10R1 complex, sequence (P22301 19-178): as the sequence (P22301 19-178) above
IL-10/IL-10R1 complex, sequence (Q13651 22-235, further chain): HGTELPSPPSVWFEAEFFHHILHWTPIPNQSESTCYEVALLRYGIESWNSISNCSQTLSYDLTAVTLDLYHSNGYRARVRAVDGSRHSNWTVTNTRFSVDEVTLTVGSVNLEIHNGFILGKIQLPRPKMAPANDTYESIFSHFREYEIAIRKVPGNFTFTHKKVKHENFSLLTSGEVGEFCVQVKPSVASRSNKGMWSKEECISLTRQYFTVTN
IL-10R1 ECD (Homo sapiens), sequence (Q13651 22-235): as the sequence (Q13651 22-235, further chain) above

Kd [1]	Kd [2]	Kd [3]	Substance
234 µM	–	–	IL-10/IL-10R1 complex (from UniProt P22301)
–	0.00024 µM	3000 µM	IL-10 (from UniProt P22301)
